{"source": "patent US20070248589A1", "about": "(GOVERNMENT OF THE UNITED STATES OF AMERICA AS REPRESENTED …, published 2007)", "molecules": {"B1": {"name": "Delta24-646: Uba3 deletion mutant, amino acid deletion 1-202 (protein)", "chain": "TLELYPPQVNFPMCTIASMPRLPEHCIEYVRMLQWPKEQPFGDGVPLDGDDPEHIQWIFQKSIERASQYNIRGVTYRLTQGVVKRIIPAVASTNAVIAAVCATEVFKIATSAYIPLNNYLVFNDVDGLYTYTFEAERKENCPACSQLPQNIQFSPSAKLQEVLDYLTNSASLQMKSPAITATLEGKNRTLYLQSVTSIEERTRPNLSKTLKELGLVDGQELAVADVTTPQTVLFKLHFT"}, "B2": {"name": "GST-SPATIAL long isoform fusion protein (other)", "chain": "LFLGNVYKGSLAPRRDEVTSPKAEPQPETKPENLPRSHGDVGLQKETVVPGIVDFELIHEELKTTKPQTSQPTPSAYRFGRLSHHSFFSRHHPQPQRVTHIQVTGREDLEHSLPLTTSFQLLQAPGVQPMDLTPSADIAGKPVCVVRDEFSLSALTQPTFLSRCLMGMPTISVPIGDPQSNRNPQLSTSDTWRKKLKDLASRVTVFTKEIQPKPDEVGVAQRMEPRKKRPS", "notes": "SPATIAL cDNA cloned into pGEx5X1, expressed in bacteria and held on glutathione-Sepharose beads; not shown: glutathione-S-transferase (GST) encoded by the pGEx5X1 expression vector"}, "B3": {"name": "Delta941-1365: Uba3 deletion mutant, amino acid deletion 301-441 (protein)", "chain": "MAVDGGCGDTGDWEGRWNHVKKFLERSGPFTHPDFEPSTESLQFLLDTCKVLVIGAGGLGCELLKNLALSGFRQIHVIDMDTIDVSNLNRQFLFRPKDVGRPKAEVAAEFLNDRVPNCNVVPHFNKIQDFNDTFYRQFHIIVCGLDSIIARRWINGMLISLLNYEDGVLDPSSIVPLIDGGTEGFKGNARVILPGMTACIECTLELYPPQVNFPMCTIASMPRLPEHCIEYVRMLQWPKEQPFGDGVPLDGDDPEHIQWIFQKSIERASQYNIRGVTYRLTQGVVKRIIPAVASTNAVIA"}, "B4": {"name": "GST-SPATIAL short isoform fusion protein (other)", "chain": "LFLGNVYKGSLAPRRDEVTSPKAEPQPETKPENLPRSHGDVGLQKETVVPGIVDFELIHEELKTTKPQTSQPTPSAYRFGRLSHHSFFSRHHPQPQRVTHIQDIAGKPVCVVRDEFSLSALTQPTFLSRCLMGMPTISVPIGDPQSNRNPQLSTSDTWRKKLKDLASRVTVFTKEIQPKPDEVGVAQRMEPRKKRPS", "notes": "as for B2"}}, "key": {"lymphoid cells": {"tested_on": "lymphoid cells", "experiment": "Thymocyte depletion of fetal thymic organ culture (FTOC)", "assay_type": "cell-based, mouse", "conditions": "after 14 days, flow cytometric analysis", "description": "SPATIAL expression cannot be detected in thymocytes using RT-PCR on RNA obtained from highly purified CD45+ thymocytes prepared by flow cytometer sorting from normal mice. Actin and cyclophilin mRNA was readily detected using the same RNA samples. To examine SPATIAL expression in stromal cells, thymii from day 14 mouse fetuses were harvested and cultured in fetal thymic organ culture (FTOC). The FTOC was specifically depleted of thymocytes using 2-deoxyguanosine treatment 2-deoxyguanosine is a nucleotide analog that is toxic to thymocytes. […] These cultures can be re-colonized by stem cells and are fully capable of supporting thymopoiesis (Hare et al., Semin. Immunol., 11(1):3-12, 1999). Using RT-PCR, it was shown that SPATIAL is abundantly expressed in thymic stromal cells obtained from FTOC (Flomerfelt et al., Genes and Immunity, 1:391-401, 2000)."}, "Hb12 cells": {"tested_on": "Hb12 cells", "experiment": "Bcl-2 expression assay, SPATIAL-EGFP transfected Bcl-2 expressing thymocyte cell line", "assay_type": "cell-based, mouse", "conditions": "Bcl-2 expression, FIG. 17B", "description": "The mouse thymocyte cell line Wehi 7.2 and its variant Wbcl-2, which over expresses bcl-2, were maintained in DMEM supplemented with 10% heat-inactivated FBS, 2 mM glutamine, 100 U/ml penicillin, and 0.1 mg/ml streptomycin. Cells were grown at 37° C. in a humidified atmosphere with 5% CO2.\nTransient transfections were performed using either lipids (Lipofectamine 2000 or FreeStyle 293 Expression System, each supplied by Invitrogen, Rockville, Md.) or calcium phosphate (Mammalian Transfection Kit; Stratagene, La Jolla, Calif.) or electroporation. Manufacturer instructions were followed for lipid and calcium phosphate transfections. For electroporation, the following procedure was used: Before transfection, Wehi cell and Wbcl-2 cells were counted and suspended in fresh complete DMEM without antibiotics at 5×10^5 cells/ml in a 15 cm dish. On the day of transfection, the cells were washed with PBS twice and were suspended in serum free DMEM at 6.25×10^6 cells/mL Aliquots of 800 μl cell suspension were transferred to a 4 mm electroporation cuvette and 10 μg of plasmid DNA solution was added. After 10 minutes incubation on ice, the cells were electroporated under the condition of 310 V, 725 ohms resistance, and 1050 μF capacitance. The transfected cells were incubated on ice for 10 minutes and suspended in complete DMEM in 10 cm dishes at the density of 7.5×10^4 viable cells/ml. […]"}, "GST-SPATIAL(L)": {"biological_target": "T1, GST-SPATIAL(L) (Mus musculus, UniProt Q7TSD4)", "T1 construct": "made in house", "T1 sequence (Q7TSD4 with tags, fused parts or gaps isoform Q7TSD4-6 limits assumed)": "B2 chain", "experiment": "GST pulldown assay with GST-SPATIAL long isoform", "assay_type": "binding", "conditions": "35S-methionine labeled in vitro translated protein", "description": "(§1) Eighteen cDNA clones identified in the yeast two-hybrid system were tested in an in vitro glutathione-S-transferase (GST) pulldown assay, as described in Ausubel et al., Current Protocols in Molecular Biology, Greene Publishing Associates, updated November 2003, Chapter 20, Analysis of Protein Interactions, Unit 20.2, Affinity Purification of Proteins Binding to GST Fusion Proteins.\n(§2) Briefly, a GST-SPATIAL fusion construct was produced by cloning SPATIAL cDNA(s) into pGEx5X1 expression vector using standard molecular cloning techniques. GST or GST-SPATIAL fusion protein were expressed in 1-1000 ml bacterial cultures grown for 3-4 hours until OD600 reached 0.5. Then, plasmid expression was induced for 1.5-4 hours by the addition of ITPG to a final concentration of 0.11 mM. GST or GST-fusion proteins were purified using glutathione-Sepharose beads as described in Ausubel et al., Current Protocols in Molecular Biology, Greene Publishing Associates, updated November 2003, Chapter 20, Analysis of Protein Interactions, Unit 20.2, Affinity Purification of Proteins Binding to GST Fusion Proteins.\n(§3) A coupled in vitro transcription and translation system (Promega) was used according to the manufacturer's instructions to produce radiolabeled protein from cDNAs to be tested. Radiolabeled proteins were mixed with either purified GST or GST-SPATIAL. Then, GST-containing protein complexes were purified by centrifugation from the reaction mixtures using glutathione-coated Sepharose beads. Bound proteins were eluted from the beads with SDS-PAGE loading buffer heated to 72-85° C., separated on polyacrylamide gels, and visualized by autoradiography. Specific interactions between GST-SPATIAL and in vitro translated proteins were indicated by the presence of a radiolabeled in vitro translated protein in the GST-SPATIAL-containing samples, but not in the GST-alone samples.\n(§4) GST pulldown assays were performed as described in Example 9 using GST-SPATIAL(L) and GST-SPATIAL(S) and each of the Uba3 mutants described in this example."}, "GST-SPATIAL(S)": {"biological_target": "T2, GST-SPATIAL(S) (Mus musculus, UniProt Q7TSD4)", "T2 construct": "made in house", "T2 sequence (Q7TSD4 with tags, fused parts or gaps isoform Q7TSD4-7 limits assumed)": "B4 chain", "experiment": "GST pulldown assay with GST-SPATIAL short isoform", "assay_type": "binding", "conditions": "35S-methionine labeled in vitro translated protein", "description": "as §1, §2, §3, §4"}, "[1]": {"biological_target": "T3, Uba3 deletion mutant Delta364-912 (mouse, UniProt Q8C878 22-462, 35S-methionine labeled)", "T3 construct": "Amino acids 109-291 are deleted (PstI fragment removed); also called PstI digest", "experiment": "GST pulldown of 35S-labelled in vitro translated Uba3 mutant", "description": "as §3, §4"}}, "data": [{"molecule": "Nc1nc2c(ncn2[C@H]2C[C@H](O)[C@@H](CO)O2)c(=O)[nH]1", "note": "[2-deoxyguanosine]", "values": [{"measurement": "lymphoid cells depleted", "setting": "lymphoid cells", "value": "greater than 98%"}]}, {"molecule": "Bcl-2: human Bcl-2 gene expressed in Hb12 cells, inhibits apoptosis", "values": [{"measurement": "reversal of growth suppressive effect of SPATIAL-EGFP transfection", "setting": "Hb12 cells", "value": "ineffective to reverse the growth suppressive effect"}]}, {"molecule": "Delta364-912: Uba3 deletion mutant, amino acid deletion 109-291 (PstI digest)", "values": [{"measurement": "interaction with GST-SPATIAL(L)", "setting": "GST-SPATIAL(L)", "value": "does not interact"}, {"measurement": "interaction with GST-SPATIAL(S)", "setting": "GST-SPATIAL(S)", "value": "does not interact"}]}, {"molecule": "B1", "values": [{"measurement": "interaction with GST-SPATIAL(L)", "setting": "GST-SPATIAL(L)", "value": "interact"}, {"measurement": "interaction with GST-SPATIAL(S)", "setting": "GST-SPATIAL(S)", "value": "interact"}]}, {"molecule": "B2", "values": [{"measurement": "binding result", "setting": "[1]", "value": "no binding"}]}, {"molecule": "B3", "values": [{"measurement": "interaction with GST-SPATIAL(L)", "setting": "GST-SPATIAL(L)", "value": "interact"}, {"measurement": "interaction with GST-SPATIAL(S)", "setting": "GST-SPATIAL(S)", "value": "interact"}]}, {"molecule": "B4", "values": [{"measurement": "binding result", "setting": "[1]", "value": "no binding"}]}]}
